Data from patent US20110038881A1, “PROGNOSTIC ASSAY FOR DETERMINING T CELL RESPONSE TO HLA ANTIGENS AND USE THEREOF IN FIELD OF TISSUE TRANSPLANTATION” (priority 2007, published 2011).

T1: HLA-DRB1*1301 (human)
T1 chain 1: not shown
T1 chain 2: not shown


What was measured:
HLA-DRB1*0301 (human) = assay: competition binding; details: modification not given
HLA-DRB3*0101 (human) = assay: competition binding; details: modification not given
HLA-DRB1*0101 (human) = assay: competition binding; details: modification not given
HLA-DRB1*0401 (human) = assay: competition binding; details: modification not given
HLA-DRB4*0101 (human) [1] = assay: competition binding; details: modification not given
HLA-DRB1*1101 (human) = assay: competition binding; details: modification not given
HLA-DRB5*0101 (human) = assay: competition binding; details: modification not given
HLA-DRB1*0701 (human) = assay: competition binding; details: modification not given
HLA-DRB1*1301 (human) [2] = assay: competition binding; details: modification not given
HLA-DRB1*1501 (human) = assay: competition binding; details: modification not given
HLA-DRB4*0101 (human) [3] = assay: competition; details: modification not given
HLA-DRB1*1301 (human) [4] = target: T1, HLA-DRB1*1301 (human); assay: competition assay on purified, immobilised HLA-DR against the biotinylated reference peptide, pH 4.5

| Binder | IC50 (HLA-DRB1*0301 (human)) | IC50 (HLA-DRB3*0101 (human)) | IC50 (HLA-DRB1*0101 (human)) | IC50 (HLA-DRB1*0401 (human)) | IC50 (HLA-DRB4*0101 (human) [1]) | IC50 (HLA-DRB1*1101 (human)) | IC50 (HLA-DRB5*0101 (human)) | IC50 (HLA-DRB1*0701 (human)) | IC50 (HLA-DRB1*1301 (human) [2]) | IC50 (HLA-DRB1*1501 (human)) | IC50 (HLA-DRB4*0101 (human) [3]) | IC50 (HLA-DRB1*1301 (human) [4]) |
| --- | --- | --- | --- | --- | --- | --- | --- | --- | --- | --- | --- | --- |
| VRFDSDAASQRMEPR [p8*] | 1.4 µM | 2.68 µM | 14 µM | 3.39 µM | > 100 µM | 58.3 µM | 3.58 µM | 4.65 µM | > 100 µM | > 100 µM |  |  |
| HAVSDHEATLRCWAL [p39] |  |  |  |  |  |  |  |  |  |  | 0.008 µM |  |
| PEYWDGETRKVKAHS [p11] | > 100 µM | > 100 µM | 4.95 µM | 63.2 µM | > 100 µM | 0.418 µM | 24.4 µM | 62.9 µM | > 100 µM | > 100 µM |  |  |
| SQRMEPRAPWIEQEGP [p9] | > 100 µM | > 100 µM | 10.8 µM | > 100 µM | > 100 µM | 15.5 µM | 67.1 µM | 83.7 µM | 60 µM | 33.2 µM |  |  |
| TSVSRPGRGEPRFIA [p3] | > 100 µM | > 100 µM | 0.648 µM | 5.48 µM | > 100 µM | 1.02 µM | > 100 µM | 6.93 µM | > 100 µM | 18.7 µM |  |  |
| HRVDLGTLRGYYNQS [p13*] | > 100 µM | > 100 µM | 0.089 µM | 4.04 µM | 67.1 µM | 8.06 µM | 12.4 µM | 36.7 µM | > 100 µM | 0.088 µM |  |  |
| RCWALSFYPAEITLT [p40] | 5.23 µM | 3.97 µM | 0.026 µM | 2 µM | 4.52 µM | 40.6 µM | 0.812 µM | 0.045 µM | > 100 µM | 0.028 µM |  |  |
| TERVRLVTRHIYNREE (modifications not checked) [reference peptide B1 21-36] |  |  |  |  |  |  |  |  |  |  |  | 0.131 µM |
| KPLTLRWEPSSQPTI [p50*] | > 100 µM | 3.55 µM | 0.458 µM | 0.134 µM | 4.58 µM | 11.4 µM | 45.8 µM | 0.097 µM | > 100 µM | 5.61 µM |  |  |
| APWIEQEGPEYWDGE [p10] | 49.7 µM | 75 µM | 13 µM | > 100 µM | > 100 µM | 58.1 µM | 73.5 µM | 79.4 µM | > 100 µM | 51.2 µM |  |  |
| VDLGTLRGYYNQSEA [p14*] | > 100 µM | > 100 µM | 0.209 µM | 8.83 µM | > 100 µM | 1.55 µM | 11 µM | > 100 µM | > 100 µM | 0.082 µM |  |  |
| AEITLTWQRDGEDQT [p42] | > 100 µM | 30 µM | 1.34 µM | > 100 µM | 4.58 µM | 6 µM | 4.69 µM | > 100 µM | > 100 µM | 18.8 µM |  |  |
| VGYVDDTQFVRFDSD [p6] | 0.6 µM | 0.245 µM | 27.7 µM | 97.5 µM | 9 µM | 2.8 µM | 9.19 µM | 3.16 µM | > 100 µM | 1.78 µM |  |  |
| HSMRYFFTSVSRPGR [p1*] | 7.35 µM | > 100 µM | 0.003 µM | 0.013 µM | 0.193 µM | 0.002 µM | 0.004 µM | 0.038 µM | 0.365 µM | 0.509 µM |  |  |
| RKVKAHSQTHRVDLG [p12] | > 100 µM | > 100 µM | 21.6 µM | 100 µM | 2.97 µM | > 100 µM | 7.98 µM | 0.486 µM | 0.385 µM | > 100 µM |  |  |
| KDYIALKEDLRSWTA [p25] | 1.63 µM | 85.5 µM | 0.01 µM | 0.325 µM | 27.4 µM | 0.042 µM | 0.052 µM | 2.96 µM | 2.74 µM | 0.125 µM |  |  |
| CDVGSDWRFLRGYHQ [p19] | 1.5 µM | > 100 µM | 0.009 µM | 0.543 µM | 51.4 µM | 0.029 µM | 0.033 µM | 0.341 µM | 100 µM | 0.598 µM |  |  |
| HQYAYDGKDYIALKE [p23] | 52 µM | 2.29 µM | 0.406 µM | 17.7 µM | > 100 µM | 0.684 µM | 1.5 µM | 37.8 µM | > 100 µM | > 100 µM |  |  |
| RGYHQYAYDGKDYIA [p22] | 8.48 µM | 1.28 µM | 9.49 µM | 81.5 µM | > 100 µM | 1.75 µM | 40 µM | 33.4 µM | > 100 µM | > 100 µM |  |  |
| GTLRGYYNQSEAGSH [p15*] | > 100 µM | > 100 µM | 0.406 µM | 1.82 µM | > 100 µM | 1.86 µM | 0.612 µM | 2.96 µM | > 100 µM | 0.033 µM |  |  |
